{"source": "the nanobody polyreactivity screen of Harvey et al. (2022)", "data": [{"test": "yeast display, Sf9 membrane polyspecificity reagent, FACS + sequencing; frameworks hold sequencing errors", "how_it_was_run": "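After 36–48 hours of galactose induction, yeast (Saccharomyces cerevisiae BJ5465) displaying a synthetic nanobody library were stained at 4 °C for 1 hour with 10% biotinylated, detergent-solubilized Sf9 membrane reagent. Streptavidin microbeads enriched the stained cells before FACS sorting into low and high (top ~1%) gates on anti-HA and streptavidin fluorescence. Each clone's polyreactivity label reflects its gate of origin.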", "values": [{"sequence": "QVQLVESGGGLVQAGGSLRLSCAASGFIFRYYAMGWYRQAPGKERELVAAISSGGRTSYADSVKGRFTISRDNAKNTVYLQMNSLKPEDTAVYYCAADRWRGLFYYGKDYWGQGTQVTVSS", "polyreactivity (PSR sort gate)": "high polyreactivity"}, {"sequence": "QVQLVESGGGLVQAGGSLRLSCAASGLTFVSYAMGWSRQAPGQEREFVAAINRSGGSPYYADSVKGRFTISRDNAKTTVYLQMNSLKPEDTALYYCAARRNLAYYHSGYWGQGTQVTVSS", "polyreactivity (PSR sort gate)": "high polyreactivity"}, {"sequence": "QGQLVESGGGLFQAGGSLRLSCDDSGRTFSGYAMGWYRQAPGKEREFVAAITWSGGSTYYADSVKGRFSISRDNAKNTVYLQMNSLKPEDTAVYYCAARDYTRYGYGYWGQGTQVTVSS", "polyreactivity (PSR sort gate)": "high polyreactivity"}, {"sequence": "QVQLVESGGGLVQAGGSLRISCAASGRSFWTYAMGWYRQAPGKERELVAAITWRGGSTSYADSVTGRFTISRDTAKNTVYLQMHSLKPEDTAVYYCAADTYSYLRGTYEYDYWGQGTQVTVSS", "polyreactivity (PSR sort gate)": "high polyreactivity"}, {"sequence": "QVQLVESGGGLVQAGGSLRLSCAASGIFDYYAMGWYRQAPGKERELVAAINSSGGSTYYADSVKGRFTISRDNAKNTVYLQMNSLKPEDTAVYYCAAGRYAYLFNYWGQGTQVTVSS", "polyreactivity (PSR sort gate)": "high polyreactivity"}, {"sequence": "QVQLVESGGGLVQAGGSLRLSCAASGSISDVYTMGWYRQAPGKERELVAANSFSGDSTYYADSVKGRFTISRDNAKNTVYLQMNSLKPEDTAVYYCATDVGYVYGYYYWGQGTQVTVSS", "polyreactivity (PSR sort gate)": "low polyreactivity"}, {"sequence": "QVQLVDSGGGLVQAGGSLRLSCAASGFTSTRYSMGWYREAPGKERELVAAISYGGGDTYYADSVKGRFTISRDNPKNTVYLQMNSLKPEDTAVYYCNARGRDRKSERRAFDYWGQGTQVTVSS", "polyreactivity (PSR sort gate)": "high polyreactivity"}, {"sequence": "QVQLVESGGGLVQAGGSLRLSCAASGRIFDYNTMGWYRQAPGKERELVAAITGGTGSTYYADSVKGRFTISRDNAKNTVYLQMNSLKPEDTAVYYCAAGFHKRVTPEILYDYWGQGTQVTVSS", "polyreactivity (PSR sort gate)": "low polyreactivity"}, {"sequence": "QVHLVESGGGLVQAGGSLRLSCAASGRIFRPYAMGWYRQAPGKERELVAGLTSSGGSTYYADSVKGRFTISRDNAKNTVYLHMNSRKPEDTALYYCAAGPDYGWRRYDYWGQGTQVTVSS", "polyreactivity (PSR sort gate)": "low polyreactivity"}, {"sequence": "QVQLVESGGGLVQAGGSLRLSCAASGSILDYNTMGWYIQAPGKERELVAAIDDDSTYYADSVKGRFTISRDNAKNTVYLQMNSLKPEDTAVYYSAVDWYYGDTYGYYYWYDYWGQGTQVTVSS", "polyreactivity (PSR sort gate)": "high polyreactivity"}, {"sequence": "QVQLVESGGGLVQAGGSLRLSCAASGFIFVHNAMGWYRPAPGKERELVAAIRSRGGSTYYADSVKGRFTISRDNAKNTVYLQMNSLKPEDTAVDDCAADGAVVSSSRKFGYWGQGTQVTVSS", "polyreactivity (PSR sort gate)": "low polyreactivity"}, {"sequence": "QVQLVESGGGLVQAGGSLRLSCAASGYIFGYNTMGWYRQAPGKERELVATINWRGSRTYYADSVKARFTISLDNAKNTVYLQMNSLKPEDTAVYYCNADHQFRSSVSGDHDYWGQGTQVTVSS", "polyreactivity (PSR sort gate)": "high polyreactivity"}, {"sequence": "QVQLVESGGGLVQAGGSLRLSCAASGSIFWTKAMGWYRQAPGKERELVARITYSGGSTYYADSVKGRFTISRDNAKNTVYLQMNSLKPEDTAVYYCNARTHGWPYSRYYYWGQGTQVTVSS", "polyreactivity (PSR sort gate)": "high polyreactivity"}, {"sequence": "QVQLVESGGGLVQAGGSLRLSCAASGSILYYNAMGWYRQAHGKERELVAAISTRGGSTYYADSVKGRFTISRDNAKNTVYLQMNSLKPEDTAVYYCAADHNVIWGYYYWGQGTQVTVSS", "polyreactivity (PSR sort gate)": "high polyreactivity"}, {"sequence": "QVQLVESGGGLVQAGGTLRLSCAASGSIFPRYGMGWYRHAPGKERELVAAISGSGGSTYYADSVKGRFTISRDNAKNTVYLQMNSLKPEDTAVYYCNKLRRRVNRDIDDYWGQRTQVTVSS", "polyreactivity (PSR sort gate)": "high polyreactivity"}, {"sequence": "QVQLVESGGGLVQAGGSLRLSCAASGRTFRYNTMGWYRQAPRKERELFAAISRGGRTYYADSVKGRFTISRDNAKNTVYLQMNSLKPEVTAVDYCAAPAAGDEYDYWGQGTQVTVSS", "polyreactivity (PSR sort gate)": "high polyreactivity"}, {"sequence": "LVQLVESGGGLVQAGGSLRLSSAASGLIFGYNAKGWYRQAPGKERELVAASSWSGGRTYYADSVKGRFTISRDNAKNTVYLHMNILKPEDTAVYYCAAVVRHSYFRDDHWGQGTQVTVSS", "polyreactivity (PSR sort gate)": "high polyreactivity"}, {"sequence": "QVQLVESGGGLVQAGGSLRLSCAASGSIFGWYAMGWYRQAPGKERELVASIRKSGGSTYYADSVKGRFTISRDNAKNTVYLQMNSLKPEDTAVYYCAAERYKNGAGQRKYAYDYWGQGTQVTVSS", "polyreactivity (PSR sort gate)": "high polyreactivity"}, {"sequence": "QVQIEESGGGLVQAGGSLRLSCAASGITFYWYARGWYRQAPVTERELVAAITRSGSSTYYADSVKGRFTISRDNAKNTVYLQMYSLKPEDTAVDYCAALPYKPYYDAYDYWGQGTQVTVSS", "polyreactivity (PSR sort gate)": "high polyreactivity"}, {"sequence": "QVQLVESGGGLVQAGGSLRLSCAASGSNFGVNAMGGYRQAPGKERELVAAITSGGGTYYTDSVKGRFTISRDNAKKTVYLQKNSLKPEATAVYYCMARVRGKQLVGRYDYWGQGTQVTVSS", "polyreactivity (PSR sort gate)": "high polyreactivity"}, {"sequence": "QVQLVESAGGLVQAGGSLRLSCAASGSTFVGYAMGWYRQAPGKERELVAAISGSGTSTYYADSVKGRFTISRDNAKNTVYLQMNSLKPEDTAVYYCNADPIFVYSSYNYWGQGTQVTVSS", "polyreactivity (PSR sort gate)": "low polyreactivity"}, {"sequence": "QVQLVESGGGLDQAGGSLRLTCADSGSIFIRNAMGWYRHAPGKESELVAAISGSGSSTYYADSVKGRFTISRDNAKNTVYLQMNSLKPEDTAVYYCNTDRTHSYQYGGYDYWGQGTQVTVSS", "polyreactivity (PSR sort gate)": "low polyreactivity"}, {"sequence": "QVQLVESGGGLVQAGGSLRLSCAASGSIFHRYAMGWYRQAPGKEREFVAAISGRGGSTYYADSVKGRFTISRDNAKNSVYLQMNSLKPEDTAVYYCAADSSRFYGRPRYYYWGQGTQVTVSS", "polyreactivity (PSR sort gate)": "high polyreactivity"}, {"sequence": "QVQLVESGGGLVQAGGSLRLSCAASGSTFEYNAMGWYIQAPGKERELVASSTNYADSVKGRFTISRDNANNTVYLQMNSLKPEDTAVYYCAREQCVNRNHDYWGQGTQVTVSS", "polyreactivity (PSR sort gate)": "low polyreactivity"}, {"sequence": "QVQLVESGGGLVQAGGSLRLSCAASGIIFSYYAMGWYRQAPGKERELVAAISSSGVSTNYADSVKGRFTISRDNAKNTVYLQMNSLKPEDTAVYYCNGRGYYWYRPYVNSNGGYWGQGTQVTVSS", "polyreactivity (PSR sort gate)": "high polyreactivity"}, {"sequence": "QVQLVESGGGLVQAGGSLRLSCAASGRTFGGNAMGWYRQAPGKERELVAAITVSAGHTYYADSVKGRFTISRDNAKNTVYLQMNSLKPEDTAVYYCAAGVPYYWSYVWKHPRYDHWGQGTQVTVSS", "polyreactivity (PSR sort gate)": "low polyreactivity"}, {"sequence": "QVQLVESGGGLVQAGGSLRLRCAASGRTLWLYTMGWYRQAPGKERELVARIRSGGSTYYADSVKGRFTISRDNAKNTVYLQMNSLKPEDTAVYYCAAYPYWIHYENYYWGQGTQVTVSS", "polyreactivity (PSR sort gate)": "high polyreactivity"}, {"sequence": "QVQLVESGGGVVQAGGSLRLSCAASGGIFRRNAMGWYRQAPGKERELVAAITRSGASTYDADSVKGRFTISRDNAKYTVYLQMNSLKPEDTAVYYCADAQLSAEYDYWGQGTQVTVTS", "polyreactivity (PSR sort gate)": "low polyreactivity"}, {"sequence": "QVQLVESGGGLVQAGGSLRLSCAASGSTLRAYAMGWYRQAPGKDRELVAAISGRGGRTYYADSVKGRFTISRDNAKNTVYLQMNSLKPEDTAVYYCATRYREPYVWPYDYWGRGTQVTVSS", "polyreactivity (PSR sort gate)": "high polyreactivity"}, {"sequence": "QVQLVESGGGLVQAGGSLRLSCAASGFIFGGNAMGWYRQAPGKERELVAAISSGGRTYYADSVKGRFTISRDNAKNTVYLQMNSLKPEDTAVYYCNAYSYHRGRDYWGQGTQVTVSS", "polyreactivity (PSR sort gate)": "low polyreactivity"}, {"sequence": "QVQLVESGGGLVQAGGSLRLSCAASGSIFVHNAMGWYRHAPGKERELVAAITWSGGSTYYADSVKGRFTISRDNAKNTVYLQMNSLKPEDTAVYYCAAEDVAAQWAYESPTSYWYYYWGQGTQVTVSS", "polyreactivity (PSR sort gate)": "low polyreactivity"}, {"sequence": "QVQLVESGGGLLQAGGSLRLSCAASGNIFYRYAMGWYRQAPGKERELVAAISGNSGNTYYADSVKGRFTISRDNAKNTVYLQIHSLNPEDTAVYYSAAERRAFGHYSGGQGTQVTVSS", "polyreactivity (PSR sort gate)": "high polyreactivity"}, {"sequence": "QVQLVESGGGLVQAGGSLRLSCAASGRTFNYYAMGWYRQAPGKEREFVAANSWSVGSTYYADSVKGRFTISRDNAKNTVYLQMNSLKPEDTAVYYCATEVPVGVQRHIFNYYYWGQGTPVTVSS", "polyreactivity (PSR sort gate)": "low polyreactivity"}, {"sequence": "QVQLVESGGGLVQAGGSLRLTCAASGRIFTRYAMGWYRQAPGKERELVAAINYRGSSTYYADSVKGRFTISRDNAKNTVYLQMNSLKPEDTAVYYCNTYGQTDTYWRYYYWGQGTQVTVSS", "polyreactivity (PSR sort gate)": "high polyreactivity"}, {"sequence": "QVQLVESGGGLVQEGGSLRLSCAASGRIFPYYAMGWYRQAPGKERELVAAITSGSRTYYADSVKGRFTISRDNAKNTVYLQMNSLKPEHTAVYYCNAVGGNSAYVYWGQGTQVTVSS", "polyreactivity (PSR sort gate)": "high polyreactivity"}, {"sequence": "QVQLVESGGGLVQAGGSLRLSCAASGSTIPRYAMGWYRQAPGKERELVAAISGRGGSTYYADSVKGRFTISRDNAKNSFYFQLISLKPEDTAVYYCNAYRRYYTMYYWGQGTQVTVSS", "polyreactivity (PSR sort gate)": "high polyreactivity"}, {"sequence": "QVQLVESGGGLVQAGGSLRLSCAASGSTFGYNGLGWYRQAPGKERELVAAISGGARTYADSVKGRFTISRDNAKNTVYLQMNSLKPEDTSVYYCAADSPVSVTADDGYWGQGTQVTVSS", "polyreactivity (PSR sort gate)": "low polyreactivity"}, {"sequence": "QVQIVESGGGLVQAGGSLRLSCAPSGSTFGSNAMGWYRQAPGKERELVAAIRWSGGSTYYADSVKGRFTISRDNAKNTVYLQMNSLKPEDTAVYYCNAVYGRQYRGYNYKYYYWGQGTQVTVSS", "polyreactivity (PSR sort gate)": "high polyreactivity"}, {"sequence": "QVQLVESGGGLVQAGGSLRLSCAASGYTFYAYAMGWYRQAPGKERELVATISSGGRTYYADSVKGLFTISRDNAKNTVYLQMNSLKPEDTAVYYCAARKTRYISRFDYWGQGTQVTVSS", "polyreactivity (PSR sort gate)": "high polyreactivity"}, {"sequence": "QVQLVESGGGLVQAGGSLRLSCAASGFTFSNYAMGWYRQAPGKERELVAAISKRGGSTYYADSVKGRFTISRDNAKNTVYLQRNSLKPEDTAVYYCAAYGGYIRRSVPVWGYYYWGQGTQVTVSS", "polyreactivity (PSR sort gate)": "high polyreactivity"}, {"sequence": "QVQLVESGGGLVQAGGSLRLSCAASGRLFKSYAMGWYRQAPGKERELVAAIRSGGSTYYADSVKGRFTISRDNAKNTVYLQMISLKPEDTAVYYCNRVTRTWTVTYHYWGQGTQVTVSS", "polyreactivity (PSR sort gate)": "high polyreactivity"}, {"sequence": "QVQLVESGGGLVQAGGSLRLSCAASGRTFNVNAMGWYRQAPGKERELVAAISSSGTTNYADSVKGRFTISRDNAKNTVYLQMNSLKPEDTAVYYCNKRWRDKYPQYDYWGQGTQVTVSS", "polyreactivity (PSR sort gate)": "low polyreactivity"}, {"sequence": "QVQLVESGGGLVQAGCSLRLSCAATGCSFKYNTMGWYRQAPGKERELVAAITSGGGSTYYADSVKGRFTISRDNAKNTVYLPMNRLKPEDTAVYYCAAYRRNTYWGQGTQVTVSA", "polyreactivity (PSR sort gate)": "high polyreactivity"}]}]}
